Results on 6 molecules are retold here after patent publication US6521748B2, “Polynucleotide encoding a mutant Rhodotorula glutinis tyrosine ammonia lyase polypeptide” (E. I. du Pont de Nemours and Company, priority 1999, dated 2003).

Changes are numbered by the printed parent chain. Read-outs that look alike come from different tables or passages of the source.

The term Km denotes the substrate concentration at which the rate is half of its maximum. The kcat is the maximal rate divided by the concentration of active sites.

The subject of data set [1] is tyrosine-auxotrophic E. coli strain AT2471 containing pCA18Km. Put plainly: Toxicity of PHCA to tyrosine-auxotrophic E. coli on minimal plate. Format: cell-based. The following applies: for cell growth: 0.004 mM tyrosine added. Also noted: key to cell growth: −: no growth; +: very poor growth; ++: poor growth; +++: good growth. How it is done: (§1) In order to find the suitable condition for selection, cell growth was tested on a minimal plate containing various concentrations of tyrosine or PHCA (see Table 9).

Data set [2] has the same test system. Briefly: Growth of tyrosine-auxotrophic E. coli on minimal plate with tyrosine. The format is cell-based. Also noted: key: −: no growth; +: very poor growth; ++: poor growth; +++: good growth. The following applies: no PHCA. As to the method:
as §1

The nature of data set [3]: Enzyme kinetics of purified wild type and mutant PAL, PAL activity (spectrophotometric). The following applies: phenylalanine as substrate; for Km: Lineweaver-Burke plot; for kcat: from Vmax assuming four active sites. The format is biochemical. As to the method:
(§2) The PAL or TAL activity of the purified enzymes were measured using a spectrophotometer according to Abell et al., “Phenylalanine Ammonia-lyase from Yeast Rhodotorula glutinis,” Methods Enzymol. 142:242-248 (1987). The spectrophotometric assay for PAL determination was initiated by the addition of the enzyme to a solution containing 1.0 mM L-phenylalanine and 50 mM Tris-HCl (pH 8.5). The reaction was then followed by monitoring the absorbance of the product, cinnamic acid, at 290 nm using a molar extinction coefficient of 9000 cm^−1. The assay was run over a 5 min period using an amount of enzyme that produced absorbance changes in the range of 0.0075 to 0.018/min. One unit of activity indicated deamination of 1.0 μmol of phenylalanine to cinnamic acid per minute. The TAL activity was similarly measured using tyrosine in the reaction solution. The absorbance of the para-hydroxycinnamic acid produced was followed at 315 nm and the activity was determined using an extinction coefficient of 10,000 cm^−1 for PHCA. One unit of activity indicated deamination of 1.0 μmol of tyrosine to para-hydroxycinnamic acid per minute.
(§3) A detailed enzyme kinetics analysis using the yeast wild type and the purified mutant PAL enzyme and tyrosine or phenylalanine as substrate, was carried out. The PAL and TAL activities were measured spectrophotometrically as described in the General Methods and the KM and Vmax were determined from its Lineweaver-Burke plot. The kcat was calculated from Vmax assuming the presence of four active sites in the active tetramer.

The nature of data set [4]: PAL specific activity in cell free extracts. Format: biochemical. The following applies: cell free extract of E. coli clones over-expressing PAL from pKK223-3. How it is done: as §2
(§4) The cell pellet was resuspended with 0.5 mL/g cells, 50 mM Tris-HCl buffer (pH 8.5) and disrupted by a single passage through the French Pressure Cell at 20,000 psi. The disrupted cells were then centrifuged for 30 min at 14,200×g to remove the unbroken cell mass. […]

Data set [5] is described as follows: Enzyme kinetics of purified wild type and mutant PAL, TAL activity (spectrophotometric). The format is biochemical. The following applies: tyrosine as substrate; for Km: Lineweaver-Burke plot; for kcat: from Vmax assuming four active sites. How it is done:
as §2, §3

Data set [6] is described as follows: Whole cell TAL/PAL activity ratio (follow-up assay after high throughput screen). Format: cell-based, E. coli. How it is done:
The following assay was performed to confirm that fully active mutant PAL enzyme was produced in BL21(DE3) E. coli cells. E. coli cells were grown in LB medium overnight. One mL of cell culture was pelleted and resuspended in 1 mL of 50 mM Tris-HCl buffer (pH 8.5) containing 0.5 mM tyrosine (for TAL activity measurement) or phenylalanine (for PAL activity measurement). The reaction mixture was incubated on the shaker at 37 C. for 1 hr. The reaction mixture was filtrated using 0.2 μm pore size filter (Millipore, Bedford, Mass.), and injected into HPLC (Hewlett-Packard Company, Palo Alto, Calif.). TAL or PAL activity was determined by measuring the concentration of the resulting PHCA or cinnamate. […]
5,000 mutant colonies were picked from agarose plates and screened by high throughput assay (Example 20). The initial hits were further investigated by a follow-up assay to confirm screening results. The TAL and PAL activities were measured using the whole cell assay, described in Example 17, and then ratio of TAL/PAL activities was calculated. The following table summarizes results of the follow-up assay for four mutants with altered TAL/PAL ratios:
A total of 5,000 mutant colonies from these three libraries were screened by high throughput assay (Example 20). Initial hits were further investigated by a follow-up HPLC assay to confirm the screening results as described in Example 21. One mutant with improved TAL/PAL ratio was found (Table 19).

Data set [7] in a line: TAL specific activity in cell free extracts. The format is biochemical. The following applies: cell free extract of E. coli clones over-expressing PAL from pKK223-3. How it is done:
as §2, §4

Data set [8] in a line: Ratio of TAL to PAL catalytic efficiency of purified enzymes. The format is biochemical. How it is done:
as §3
The catalytic efficiency, defined as kcat/KM, was calculated for both the wild type and mutant enzyme. The ratio of the TAL catalytic efficiency versus the PAL of the wild type enzyme was 0.5 while that of the mutant enzymes had increased to 1.7 (see Table 11).

Data set [9] is described as follows: Ratio of PAL to TAL specific activity. Format: biochemical. The following applies: purified enzyme.
Method: The PAL or TAL activity of the purified enzymes were measured using a spectrophotometer according to Abell et al., “Phenylalanine Ammonia-lyase from Yeast Rhodotorula glutinis,” Methods Enzymol. […] The spectrophotometric assay for PAL determination was initiated by the addition of the enzyme to a solution containing 1.0 mM L-phenylalanine and 50 mM Tris-HCl (pH 8.5). The reaction was then followed by monitoring the absorbance of the product, cinnamic acid, at 290 nm using a molar extinction coefficient of 9000 cm^−1. The assay was run over a 5 min period using an amount of enzyme that produced absorbance changes in the range of 0.0075 to 0.018/min. One unit of activity indicated deamination of 1.0 μmol of phenylalanine to cinnamic acid per minute. The TAL activity was similarly measured using tyrosine in the reaction solution. The absorbance of the para-hydroxycinnamic acid produced was followed at 315 nm and the activity was determined using an extinction coefficient of 10,000 cm^−1 for PHCA. One unit of activity indicated deamination of 1.0 μmol of tyrosine to para-hydroxycinnamic acid per minute.
The PAL/TAL activity was determined as described above.
The conditions of data set [10]: Hanson and Havir 1981; cited from earlier work.
Data set [11] can be described thus: Whole cell TAL activity assay (HPLC) in BL21(DE3) E. coli cells. Format: cell-based. The following applies: for TAL Activity (%): 0.5 mM tyrosine, 37 C, 1 hr. As to the method:
The following assay was performed to confirm that fully active mutant PAL enzyme was produced in BL21(DE3) E. coli cells. E. coli cells were grown in LB medium overnight. One mL of cell culture was pelleted and resuspended in 1 mL of 50 mM Tris-HCl buffer (pH 8.5) containing 0.5 mM tyrosine (for TAL activity measurement) or phenylalanine (for PAL activity measurement). The reaction mixture was incubated on the shaker at 37 C. for 1 hr. The reaction mixture was filtrated using 0.2 μm pore size filter (Millipore, Bedford, Mass.), and injected into HPLC (Hewlett-Packard Company, Palo Alto, Calif.). TAL or PAL activity was determined by measuring the concentration of the resulting PHCA or cinnamate.
The truncation mutants were analyzed by measuring TAL activity using the whole cell assay described in Example 17. Table 15 summarizes the results:
The C-terminal truncation mutant was analyzed by measuring TAL and PAL activities using the whole cell assay described in Example 17, and pET17b-Km-6 was used as positive control.

A short description of data set [12]: Whole cell PAL/TAL activity of colonies from the selection plates. The format is cell-based, E. coli. The following applies: whole cell assay. How it is done: An HPLC assay was developed for measuring the levels of cinnamic acid and PHCA formed by the whole cells. In a typical assay, following centrifugation of a culture grown in the medium of choice, 20-1000 μL of the supernatant was acidified with phosphoric acid, filtered through a 0.2 or 0.45 micron filter and analyzed by the HPLC to determine the concentration of PHCA and cinnamic acid in the growth medium. Alternatively, following centrifugation, the cells were resuspended in 100 mM Tris-HCl (pH 8.5) containing 1.0 mM tyrosine or 1.0 mM phenylalanine and incubated at room temperature for 1.0-16 h. A filtered aliquot (20-1000 μL) of this suspension was then analyzed.
The colonies that had appeared on the selection plates were analyzed for their PAL/TAL activity using the whole cell assay described in the general methods. […] Genetic analysis for the EP18Km-6 mutant was carried out. The plasmid DNA was purified from the mutant cells, and then re-transformed into E. coli. […] To better characterize the mutants, the following analyses were carried out.

Take `O=C(O)C=Cc1ccc(O)cc1` [PHCA, Para-hydroxycinnamic acid]: the cell growth result in data set [1] (0.0001-0.0002 mM PHCA) is on record as “+++”; in data set [1] (0.0003-0.0005 mM PHCA) it was “+++”; in data set [1] (0.001-0.004 mM PHCA) it was “+++”; in data set [1] (10 mM PHCA) it was “−”; in data set [1] (1.0-2.0 mM PHCA), “++”; in data set [1] (4.0-6.0 mM PHCA), “+”. In addition, the “toxicity to the cells” value in data set [1] (high concentrations) is “toxic”.

As for `N[C@@H](Cc1ccc(O)cc1)C(=O)O` [Tyrosine, tyrosine], the cell growth entry was “−” in data set [2] (0.0001-0.0002 mM tyrosine), “+” in [2] (0.0003-0.0005 mM tyrosine) and “+++” in data set [2] (0.001-0.004 mM tyrosine).

B1: Wild Type PAL: wildtype R. glutinis (Rhodosporidium toruloides) PAL enzyme, SEQ ID NO:8 (protein)
chain: MAPSLDSISHSFANGVASAKQAVNGASTNLAVAGSHLPTTQVTQVDIVEKMLAAPTDSTLELDGYSLNLGDVVSAARKGRPVRVKDSDEIRSKIDKSVEFLRSQLSMSVYGVTTGFGGSADTRTEDAISLQKALLEHQLCGVLPSSFDSFRLGRGLENSLPLEVVRGAMTIRVNSLTRGHSAVRLVVLEALTNFLNHGITPIVPLRGTISASGDLSPLSYIAAAISGHPDSKVHVVHEGKEKILYAREAMALFNLEPVVLGPKEGLGLVNGTAVSASMATLALHDAHMLSLLSQSLTAMTVEAMVGHAGSFHPFLHDVTRPHPTQIEVAGNIRKLLEGSRFAVHHEEEVKVKDDEGILRQDRYPLRTSPQWLGPLVSDLIHAHAVLTIEAGQSTTDNPLIDVENKTSHHGGNFQAAAVANTMEKTRLGLAQIGKLNFTQLTEMLNAGMNRGLPSCLAAEDPSLSYHCKGLDIAAAAYTSELGHLANPVTTHVQPAEMANQAVNSLALISARRTTESNDVLSLLLATHLYCVLQAIDLRAIEFEFKKQFGPAIVSLIDQHFGSAMTGSNLRDELVEKVNKTLAKRLEQTNSYDLVPRWHDAFSFAAGTVVEVLSSTSLSLAAVNAWKVAAAESAISLTRQVRETFWSAASTSSPALSYLSPRTQILYAFVREELGVKARRGDVFLGKQEVTIGSNVSKIYEAIKSGRINNVLLKMLA
B1: the Km is 250 µM in data set [3] and 111 µM in data set [5]. The “kcat” value in data set [3] was determined as 2.09 s⁻¹; in [5], 0.46 s⁻¹. Further, the “highest specific activity, PAL” value in [4] came out at 0.244 U/mg protein. Also, the “TAL/PAL ratio” value in data set [6] is listed as 0.5; in data set [6] (regional mutant amino acid No. 492-503, Table 19), 0.5; in data set [6] (summary table of mutants), 0.5. Also, the “highest specific activity, TAL” value in data set [7] stood at 0.0650 U/mg protein. In addition, in data set [8], the “TAL/PAL ratio (catalytic efficiency)” value stood at 0.5.

B2: purified enzyme: purified PAL/TAL enzyme of Rhodosporidium toruloides (protein, UniProt P11544 1-716, looked up)
Phenylalanine/tyrosine …: B1 chain
For the molecule B2, the PAL/TAL ratio in [9] is 2.12.

B3: Rhodosporidium: PAL/TAL enzyme of the yeast Rhodosporidium, literature value (protein)
chain: B1 chain
For B3, the “ratio of TAL catalytic activity to PAL catalytic activity” value in data set [10] is recorded as “approximately 0.58”.

B4: EP18Km-6: mutant R. glutinis PAL enzyme having enhanced TAL activity, Ile540Thr, SEQ ID NO:10 (protein)
chain: B1 chain with I540T
Consider B4, for which the results for the Km in data set [3] and in [5] were 333 µM and 50 µM, respectively. The “kcat” value in data set [3] is 2.45 s⁻¹; in data set [5], 0.63 s⁻¹. Also, the “TAL/PAL activity of enzyme expressed from pET17b” value in data set [11] (BL21(DE3) E. coli cells) is listed as “fully active”. For the same molecule, the “TAL Activity (%)” value in [11] (C-terminal truncation mutant in pET17b) and in data set [11] (N-terminus truncation mutants in pET17b) was 100% throughout. For the same molecule, the “TAL activity ratio versus wild type cell” value in [12] was “enhanced TAL activity ratio”. The TAL/PAL ratio is 1.7 in data set [6] (regional mutants amino acid No. 120-280, Table 17) and 1.7 in data set [6] (summary table of mutants). Also, the “TAL/PAL ratio (catalytic efficiency)” value in data set [8] is reported as 1.7.
